{"source": "patent US5654276A", "about": "“Peptides and compounds that bind to the IL-5 receptor” (Affymax Technologies N.V., priority 1995, dated 1997)", "origin": "cited, not measured here", "target": "T1, human IL-5 receptor (Homo sapiens, UniProt Q01344)", "T1 construct": "host or cells: HL60 subclone induced towards eosinophil differentiation with sodium butyrate (endogenous receptor)", "T1 sequence (Q01344 21-420)": "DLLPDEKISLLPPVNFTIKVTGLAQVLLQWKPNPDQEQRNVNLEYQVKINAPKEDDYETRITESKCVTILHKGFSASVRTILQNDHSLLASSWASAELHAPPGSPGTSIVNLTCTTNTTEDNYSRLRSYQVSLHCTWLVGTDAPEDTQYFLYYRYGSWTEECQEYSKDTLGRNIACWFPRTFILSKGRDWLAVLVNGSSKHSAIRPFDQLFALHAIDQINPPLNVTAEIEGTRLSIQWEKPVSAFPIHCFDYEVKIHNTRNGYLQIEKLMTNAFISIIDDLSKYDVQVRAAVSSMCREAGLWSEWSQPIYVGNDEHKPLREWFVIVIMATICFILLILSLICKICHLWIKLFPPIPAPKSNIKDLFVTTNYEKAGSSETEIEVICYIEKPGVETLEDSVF", "T1 sequence (P32927 17-897 partner)": "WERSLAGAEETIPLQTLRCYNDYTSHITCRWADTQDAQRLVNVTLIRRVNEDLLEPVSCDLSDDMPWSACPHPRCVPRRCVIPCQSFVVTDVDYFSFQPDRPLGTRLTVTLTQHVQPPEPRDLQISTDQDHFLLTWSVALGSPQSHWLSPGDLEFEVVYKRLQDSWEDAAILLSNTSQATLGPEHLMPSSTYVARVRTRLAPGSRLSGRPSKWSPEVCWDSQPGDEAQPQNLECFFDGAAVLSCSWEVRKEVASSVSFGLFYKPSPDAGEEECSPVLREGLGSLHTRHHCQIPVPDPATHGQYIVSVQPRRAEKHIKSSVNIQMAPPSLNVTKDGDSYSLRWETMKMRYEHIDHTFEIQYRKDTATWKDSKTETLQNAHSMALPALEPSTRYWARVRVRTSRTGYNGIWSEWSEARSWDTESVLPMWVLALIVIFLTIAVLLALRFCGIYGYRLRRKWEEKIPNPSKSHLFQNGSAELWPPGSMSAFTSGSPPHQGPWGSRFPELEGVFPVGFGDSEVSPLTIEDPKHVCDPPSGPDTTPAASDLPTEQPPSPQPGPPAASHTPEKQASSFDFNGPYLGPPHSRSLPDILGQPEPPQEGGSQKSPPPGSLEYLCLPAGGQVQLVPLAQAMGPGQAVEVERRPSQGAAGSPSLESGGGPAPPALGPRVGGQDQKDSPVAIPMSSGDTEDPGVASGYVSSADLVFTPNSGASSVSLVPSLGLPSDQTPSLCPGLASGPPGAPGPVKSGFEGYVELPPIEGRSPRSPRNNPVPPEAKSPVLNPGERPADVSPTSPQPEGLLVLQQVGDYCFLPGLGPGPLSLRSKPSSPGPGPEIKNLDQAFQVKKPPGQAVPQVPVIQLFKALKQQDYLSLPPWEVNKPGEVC", "conditions": "HL60 subclone, eosinophilic differentiation initiated with sodium butyrate; read-out: Kd of IL-5 binding sites"}
{"substance": "IL-5: lymphokine secreted by T cells and mast cells having biological activities on B cells and eosinophils", "values": [{"measurement": "Kd", "result": 0.03, "unit": "nM"}]}
